# Reference: article PMC7948962, “Wzb of Vibrio vulnificus represents a new group of low-molecular-weight protein tyrosine phosphatases with a unique insertion in the W-loop” (The Journal of Biological Chemistry, 2021)
# Tested on: O=[N+]([O-])c1ccc(OP(=O)(O)O)cc1
# Assay: p-nitrophenol release, A405, initial velocity, Michaelis-Menten fit
# Format: biochemical, Escherichia coli
# Details: 10 mM HEPES pH 7.5, 150 mM NaCl, 20 °C, 200 nM enzyme
# From the text: p-nitrophenol release, A405, initial velocity, Michaelis-Menten fit on EcWzb
substance,measurement,setting,value
EcWzb (Escherichia coli K-12),Km,,3480 ± 240 µM
same,kcat,,2.84 ± 0.1 s⁻¹
same,kcat/Km,,820 M⁻¹ s⁻¹
EcWzb (Escherichia coli K-12; INS39AAAA),Km,A39_L40insAAAA,2050 ± 100 µM
same,kcat,A39_L40insAAAA,6.09 ± 0.09 s⁻¹
same,kcat/Km,A39_L40insAAAA,2970 M⁻¹ s⁻¹
EcWzb (Escherichia coli K-12; INS39EKSR),Km,A39_L40insEKSR,2530 ± 30 µM
same,kcat,A39_L40insEKSR,9.34 ± 0.1 s⁻¹
same,kcat/Km,A39_L40insEKSR,3690 M⁻¹ s⁻¹
